In PMC7586746, “A putative nuclear copper chaperone promotes plant immunity in Arabidopsis” (Journal of Experimental Botany, 2020):

B1: LS7 probe (PR1 promoter) (dsDNA)
DNA 1: TATTTTACTTACGTCATAGATGTGGCGGCA
DNA 2: TGCCGCCACATCTATGACGTAAGTAAAATA
B2: His-TGA2 (natural protein, UniProt P43273 1-330, looked up)
chain: MADTSPRTDVSTDDDTDHPDLGSEGALVNTAASDSSDRSKGKMDQKTLRRLAQNREAARKSRLRKKAYVQQLENSRLKLTQLEQELQRARQQGVFISGTGDQAHSTGGNGALAFDAEHSRWLEEKNKQMNELRSALNAHAGDSELRIIVDGVMAHYEELFRIKSNAAKNDVFHLLSGMWKTPAERCFLWLGGFRSSELLKLLANQLEPMTERQLMGINNLQQTSQQAEDALSQGMESLQQSLADTLSSGTLGSSSSGNVASYMGQMAMAMGKLGTLEGFIRQADNLRLQTLQQMIRVLTTRQSARALLAIHDYFSRLRALSSLWLARPRE
notes: transcription factor TGA2

Experiments:
NPR1 = NPR1 (UniProt P93002 1-593); test: EMSA; NPR1 alone; LightShift EMSA kit: 500 ng GST-tagged protein, 4 fmol biotin-LS7 probe, 20 ul with 1 ul dI-dC, 1 ul 50% glycerol, kit 10x binding buffer, 20 min, 25 C; 6% native gel; salt and pH not stated; details: protein: recombinant; tags: GST (N-terminal); blunt
TGA2;NPR1 = TGA2;NPR1 (Arabidopsis thaliana?;Arabidopsis …, UniProt P43273;P93002 1-330;1-593, |); test: EMSA; with NPR1; substantially more probe bound than TGA2 alone; LightShift EMSA kit: 500 ng GST-tagged protein, 4 fmol biotin-LS7 probe, 20 ul with 1 ul dI-dC, 1 ul 50% glycerol, kit 10x binding buffer, 20 min, 25 C; 6% native gel; salt and pH not stated; details: protein: recombinant;recombinant; tags: GST (N-terminal);GST (N-terminal); blunt
GST–NPR1 = target: T1, GST–NPR1 (UniProt P93002 1-593); test: pull-down; GST pull-down in vitro of His-CCP and His-TGA2 added together, in the presence of Cu^2+ (Supplementary Fig. S13); details: both partners purified
T1 construct: NPR1 (non-expressor of pathogenesis-related gene 1), cloned into pGEX-4T-1; source: E. coli BL21, purified
T1 sequence (looked up): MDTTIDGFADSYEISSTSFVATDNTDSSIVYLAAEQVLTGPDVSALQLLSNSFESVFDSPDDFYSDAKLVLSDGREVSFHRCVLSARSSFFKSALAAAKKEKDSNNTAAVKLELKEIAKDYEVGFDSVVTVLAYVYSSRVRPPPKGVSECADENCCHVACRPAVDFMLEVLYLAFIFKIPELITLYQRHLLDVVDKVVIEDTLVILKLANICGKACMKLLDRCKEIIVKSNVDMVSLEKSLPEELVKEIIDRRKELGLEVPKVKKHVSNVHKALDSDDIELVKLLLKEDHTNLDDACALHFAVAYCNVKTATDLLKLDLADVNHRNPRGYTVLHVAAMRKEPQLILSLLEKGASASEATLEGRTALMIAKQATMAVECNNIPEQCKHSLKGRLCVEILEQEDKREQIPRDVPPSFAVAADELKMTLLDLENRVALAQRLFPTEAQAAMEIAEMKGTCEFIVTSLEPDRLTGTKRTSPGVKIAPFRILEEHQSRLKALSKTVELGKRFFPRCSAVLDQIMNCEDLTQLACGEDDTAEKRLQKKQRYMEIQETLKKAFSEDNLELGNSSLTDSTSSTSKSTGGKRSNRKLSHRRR

Row | Binder | binding result (NPR1) | binding result (TGA2;NPR1) | binding result (GST–NPR1)
1 | B1 | no binding | binds | 
2 | B2 |  |  | binds
